From FireProtDB (doi:10.1021/bi048182n) come the findings set out here.

Where “and” joins values, the source holds several entries; their conditions need not be identical. Equal entries are not always repeated.

For this data set the following is noted: Bos taurus, pH 8.4, 23 °C, GdnHCl, HPLC, Tris-HCl 0.1 M, reversible: yes, whole UniProt chain shown.

B1: Alpha-lactalbumin wild type, P00711 (protein)
chain: MMSFVSLLLVGILFHATQAEQLTKCEVFRELKDLKGYGGVSLPEWVCTTFHTSGYDTQAIVQNNDSTEYGLFQINNKIWCKDDQNPHSSNICNISCDKFLDDDLTDDIMCVKKILDKVGINYWLAHKALCSEKLDQWLCEKL
As to B1, the denaturant m value is 2.3 kcal/mol/M and 3.4 kcal/mol/M; the “denaturant midpoint (higher = more stable)” value is 1.1 M and 0.4 M; the unfolding free energy is 2.53 kcal/mol and 1.36 kcal/mol. Besides, where the note is “CaCl2 5 mM”, the denaturant m value is 2.1 kcal/mol/M and 2.4 kcal/mol/M; the “denaturant midpoint (higher = more stable)” value was 2.15 M and 1.4 M; the unfolding free energy is 4.52 kcal/mol and 3.36 kcal/mol.
